Reference: patent US20220401560A1, “PEPTIDE ENCAPSULATING FERRITIN” (Ajinomoto Co., Inc., priority 2019, published 2022)
No end group written: not given here.

Biological target: T1, ferritin (FTH) (Homo sapiens, UniProt P02794)
T1 construct: made in house; host or cells: Escherichia coli BL21 (DE3), plasmid pET20-FTH
Test: Encapsulation of fluorescent dye-modified peptide into FTH, column chromatography with absorbance at 480 nm and LC-MS
Procedure: Of a 50 mM glycine hydrochloride buffer (pH 2.3) that contains FTH (chemical formula weight: 509,421) at a final concentration of 5 mg/mL and the peptide at a final concentration of 0.5 mM, 0.5 mL was left to stand at room temperature for 15 minutes. Next, 50 μL of a 1 M Tris hydrochloride buffer (pH 9.0) was added for neutralization, and the resulting solution was left to stand at room temperature for 3 hours. After the standing, the resulting solution was centrifuged (at 15,000 rpm for one minute). Then, the supernatant was collected and the volume was increased up to 3 mL with a 10 mM Tris hydrochloride buffer (pH 8). The resulting solution was injected into the HiPrep 26/60 Sephacryl S-300 HR column (GE Healthcare Inc.) equilibrated with a 10 mM Tris-HCl buffer (pH 8.0) to separate and purify 24-mer FTH by size at a flow rate of 1.3 mL/minute. The purified ferritin was analyzed using a HiPrep 16/60 Sephacryl S-300 HR column (GE Healthcare Inc.) equilibrated with a 10 mM Tris-HCl buffer (pH 8.0) at a flow rate of 0.5 mL/minute and confirmed as the absorbance at 480 nm unobservable from FTH only, at the same position as that of a peak of FTH.
The solution containing the FTH was concentrated to 0.25 mL by centrifugal ultrafiltration using Vivaspin 20-100K (GE Healthcare Inc.). […] For the LC-MS analysis, 50 μL of a 1 M glycine hydrochloride buffer (pH 2.3) was added to 50 μL of the sample solution and then the resulting solution was left to stand at room temperature for 15 minutes. To the solution 900 μL of ethanol was added. Next, the resulting solution was stirred vigorously and then centrifuged (at 15,000 rpm for five minutes) to collect its supernatant. The supernatant was analyzed using LCMS-2020 (Shimadzu Corporation) as LC-MS, inertsil (Registered trademark) ODS-3 with a particle diameter of 2 μm and 2.1 mm×50 mm (GL science) as a column. Into the column, 10 μL of the sample was injected, and eluded at a flow rate of 0.2 mL/min for 10 minutes such that a mixing ratio of a solution A (0.1% formic acid/99.9% acetonitrile) and a solution B (50% water/50% acetonitrile) was from 95:5 to 95:5. The concentration of the contained protein was determined using a protein assay CBB solution (Nacalai Tesque, Inc.) in terms of bovine albumin as a standard. The concentration of the encapsulated peptide was determined based on the absorbance at 480 nm of the fluorescent dye FAM to which PKC-F is modified.
First, the construction of FTH encapsulating two kinds of fluorescent dye-modified peptides [5(6)—FAM-[…] (SEQ ID NO: 10), FAM-SV40, chemical formula weight 1,516, and 5(6)—FAM-[…] […] (SEQ ID NO: 11), FAN-Np, chemical formula weight 384] was attempted. 0.5 mL of a 50 mM glycine hydrochloride buffer (pH 2.3) that contains FTH (chemical formula weight 509,421) at a final concentration of 5 mg/mL and a peptide at a final concentration of 0.5 mM, was left to stand at room temperature for 15 minutes. Next, 50 μL of a 1 M Tris hydrochloride buffer (pH 9.0) was added for neutralization, and the resulting solution was left to stand at room temperature for 3 hours. […] The absorbance at […] was confirmed at the same elusion position as that of ferritin 24-mer, for ferritin that was used for the operation to encapsulate FAM-SV40 therein. […] Next, the peptide amount of FAM-SV40 encapsulated in purified ferritin was quantified based on the 480 nm absorbance and by CBB staining with use of ferritin-amount-albumin as a standard.

T1 sequence (P02794 whole entry): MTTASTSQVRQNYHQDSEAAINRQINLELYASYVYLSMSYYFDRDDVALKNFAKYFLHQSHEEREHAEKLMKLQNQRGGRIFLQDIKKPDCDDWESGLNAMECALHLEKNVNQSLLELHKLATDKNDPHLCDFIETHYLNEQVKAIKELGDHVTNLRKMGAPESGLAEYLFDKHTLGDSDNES

With “5(6)-FAM-CGGPKKKRKVG (SEQ ID NO: 10) ({5(6)‑FAM}-CGGPKKKRKVG) [FAM-SV40, fluorescent dye-modified peptide, linear]” the “molecules of peptide encapsulated in one molecule of ferritin on average” value (FTH, from molar ratio) was 2.5 molecules and the “encapsulation of peptide in FTH” value (absorbance at 480 nm at elution position of 24-mer FTH, LC-MS) was “encapsulated in ferritin”.
